± gives the uncertainty stated by the source.
Test: protein stability index of a GFP-peptide fusion (yeast GPS) (PSI 1-4); higher = more stable; sorted into four equal gates, so the index is relative within each strain
In short: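 Tiled 17-residue peptides from yeast proteins were fused downstream of GFP on a plasmid that also expresses Cherry, and the pooled library was carried in yeast. Mid-log cultures grown in leucine-free medium were sorted into four equal gates by GFP/Cherry fluorescence ratio. Plasmids from each gate were PCR-amplified and Illumina-sequenced, and reads were assigned to strains by barcodes. Each peptide's protein stability index is the sum, over gates, of the gate's read frequency multiplied by its gate number.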

Sequence	protein stability index (doa10∆)	protein stability index (san1∆)	protein stability index (ubr1∆)	protein stability index (pdr5∆)
VYEYVIASTLGPSAMRL [RPC82]	2.38 ± 0.21	1.6 ± 0.14	1.23 ± 0.097	
VYFGDENKVMLPRCSKE [RRI2]	3.24 ± 0.091	3.11 ± 0.074	3.13 ± 0.063	3.37 ± 0.089
VYKFMSLAKSSALWSSR [ECM29]		1.39 ± 0.2	1.74 ± 0.29	1.97 ± 0.16
VYNLALKCAERQLTSME [NUT1]	2.38 ± 0.073	2.09 ± 0.07	2.31 ± 0.029	2.2 ± 0.052
VYPITLSTDATSADLKS [UBP6]	2.32 ± 0.063	2.49 ± 0.078	2.4 ± 0.059	2.53 ± 0.063
VYREVCAACHSLDRVAW [CYT1]	3.36 ± 0.26	2.71 ± 0.17	2.86 ± 0.13	3.04 ± 0.12
VYSKQATFLLTDIKDTL [MCD1]	2.27 ± 0.062	2.23 ± 0.086	2.3 ± 0.057	2.3 ± 0.076
VYYSKRGFKVGLVCADT [SRP54]	2.41 ± 0.12	2.19 ± 0.098	2.5 ± 0.054	2.29 ± 0.073
WDLLPEPIRFLPNQFPL [SWI1]	2.54 ± 0.059	2.26 ± 0.054	2.31 ± 0.069	2.58 ± 0.071
WDLSVEDALYLGKRSIL [PRE2]	3.4 ± 0.06	3.17 ± 0.064	3.39 ± 0.048	3.34 ± 0.056
WGHPTRMLLNLCKSATT [BRR2]	1.47 ± 0.047	1.75 ± 0.066	1.35 ± 0.046	1.55 ± 0.046
WIVVLPWFWLLPLWHLL [POP1]	2.4 ± 0.092	1.14 ± 0.13	1.07 ± 0.046	1.21 ± 0.057
WKRQISYFLKLLGNCYS [SRB8]	1.63 ± 0.038	1.69 ± 0.071	1.37 ± 0.037	1.82 ± 0.042
WNKRDFMAFINACAKYG [ISW2]	1.21 ± 0.087	1.34 ± 0.26	1.15 ± 0.063	1.24 ± 0.092
WQYIVIDEAHRIKNEQS [ISW2]	1.48 ± 0.075	1.23 ± 0.11	2.24 ± 0.071	1.64 ± 0.08
WREQLRNRDIALFQPPN [ROX3]	2.31 ± 0.066	2.73 ± 0.059	1.96 ± 0.047	2.95 ± 0.066
WRKDAQGNYPTTSYIKE [DPB4]	2.94 ± 0.092	2.92 ± 0.069	2.56 ± 0.064	2.88 ± 0.069
WSFDLPEMSNLYRLSTP [PRP8]	2.71 ± 0.049	2.59 ± 0.038	2.67 ± 0.043	2.71 ± 0.04
WTSTQRHHWQYTKASLA [SSN8]	1.26 ± 0.093	1.42 ± 0.16	1.46 ± 0.073	1.38 ± 0.095
WVQLVQIIVTDGKLEPS [YJL039C/NUP192]	1.27 ± 0.065	1.19 ± 0.098	1.27 ± 0.07	1.32 ± 0.085
WVYKTKGDGMTSAVASI [RPN1]	2.75 ± 0.27	2.57 ± 0.23	2.97 ± 0.14	3.14 ± 0.19
WYIEKVIRIPMQENDKI [CSI1]	3.05 ± 0.14		3.02 ± 0.14	2.78 ± 0.1

Sequence	protein stability index (doa10∆)	protein stability index (san1∆)	protein stability index (ubr1∆)	protein stability index (pdr5∆)
WYKVAKNVGNKSPEQCI [SWI3]	2.98 ± 0.097	3.07 ± 0.093	3.08 ± 0.05	3.27 ± 0.07
YAKDILQKEFLPHITQL [RPB2]	1.76 ± 0.047	1.4 ± 0.065	1.38 ± 0.031	1.8 ± 0.04
YALFLKALRRKIYINLA [SSN2]	1.62 ± 0.092	1.35 ± 0.12	1.47 ± 0.085	1.31 ± 0.067
YATKLSKFTKIPPTFDK [MED4]	3.08 ± 0.089	3.29 ± 0.08	2.87 ± 0.14	3.28 ± 0.084
YCDSMGRPQRKMMSFQA [RPB5]	3.5 ± 0.12	3.48 ± 0.058	3.3 ± 0.09	3.19 ± 0.13
YCHEKELTIIKNPRVTK [CSN9]	2.55 ± 0.098	2.14 ± 0.2	2.13 ± 0.13	2.29 ± 0.18
YCKGKTCRKHTQHKVTQ [RPL42A]	2.77 ± 0.094	2.54 ± 0.12	2.91 ± 0.14	3.06 ± 0.17
YCSGNIYDFHKMENLMR [YJL039C/NUP192]	2.77 ± 0.068	2.52 ± 0.05	2.73 ± 0.052	2.79 ± 0.059
YDGVERVSLQDIKDFAD [QCR2]	2.84 ± 0.1	2.5 ± 0.076	2.41 ± 0.089	2.75 ± 0.1
YDLMAPNGHISTKKIQV [YMR129W/POM152]	2.15 ± 0.08	1.5 ± 0.085	1.94 ± 0.05	2.06 ± 0.07
YDLNFKLRETLVKIDDL [SMC1]	3.05 ± 0.15	3.01 ± 0.13	2.68 ± 0.14	3.13 ± 0.13
YDTTPLLDTNSLEENAM [SKI6]	3.08 ± 0.12	2.97 ± 0.15	2.88 ± 0.078	2.96 ± 0.082
YENKQLYFPDDYPFTQL [POP1]	2.92 ± 0.048	2.93 ± 0.043	3.01 ± 0.036	2.99 ± 0.039
YESRNVAKRRFEYSKYR [RRP6]	3.16 ± 0.072	3.29 ± 0.041	3.3 ± 0.079	3.4 ± 0.087
YFFYASRPEYSCTFWSD [YJL039C/NUP192]	1.22 ± 0.069	1.31 ± 0.14	1.62 ± 0.054	1.52 ± 0.084
YGFSNKEYISRLWHTLK [SNF5]	1.57 ± 0.098	2.39 ± 0.2	1.19 ± 0.13	2.56 ± 0.21
YGNPTSKESWRYDWYQP [RTT102]	2.05 ± 0.1	2 ± 0.071	2.03 ± 0.035	2.27 ± 0.082
YGTRPLVLPPVVTSSVA [SNF2]	2.04 ± 0.086	1.76 ± 0.12	1.94 ± 0.051	2.06 ± 0.071
YGYFSVGKRVPIVEDRR [SIR4]	3.12 ± 0.12	2.16 ± 0.13	2.75 ± 0.26	2.28 ± 0.1
YHLLNYDPIKRIDAFNA [SSN3]	2.33 ± 0.065	1.6 ± 0.074	1.73 ± 0.031	1.77 ± 0.04
YHNKHMMCDFGTGNNNK [DIB1]	2.7 ± 0.053	2.73 ± 0.049	2.98 ± 0.041	2.86 ± 0.055

From the supplement of paper PMC9732359
